Test results published in patent US20250109212A1 (BIOSION, published 2025).

Columns and labels:
[1] = molecular target: T1, recombinant human CD40-his protein (Cat #: CD0-H5228, Acro biosystems) (human, UniProt P25942 21-193); test: SPR (Biacore T200), sample on Protein A chip, antigen-his analyte, 1:1 fit
T1 construct: Bought protein
Source text: (§1) The purified recombinant fusion proteins were characterized for their binding affinity and binding kinetics by Biacore T200 system (GE healthcare, Pittsburgh, PA, USA). The anti-CD40 antibody HuCD40-C1H1-V2 (having the heavy chain and the light chain of SEQ ID NOs: 19 and 20), Selicrelumab (an agonistic anti-CD40 antibody, Roche Inc., prepared in-house with heavy and light chains of SEQ ID NOs: 27 and 28), and SIRPα-Fc fusion proteins, including SIRPαV2D1M1-Fc (IgG2) (SEQ ID NO: 21, X1=I, X2=R, X3=T, X4=K, X5=F), SIRPαV2D1M2-Fc (IgG2) (SEQ ID NO: 21, X1=I, X2=R, X3=T, X4=R, X5=V), SIRPα-isoform2-Fc (SEQ ID NO: 25) were used as positive controls.
(§2) A Protein A chip (Cat #: 29-1275-56, GE healthcare) was used for affinity determination. The recombinant fusion proteins of the disclosure and the positive controls each at the concentration of 2 μg/ml were respectively flowed onto the chip at a flow rate of 10 μl/min. Then, serially diluted recombinant human CD40-his proteins (Cat #: CD0-H5228, Acro biosystems), human CD47-his proteins (Cat #: CD7-H5227, Acro biosystems), cynomolgus CD40-his proteins (Biosion in house made, SEQ ID NO: 29) or cynomolgus CD47-his proteins (Cat #: CD7-C52H1, Acro biosystems), 2-fold dilution in HBS-EP⁺ buffer (provided by Biacore) with a starting concentration of 200 nM, were flowed onto the chip at a flow rate of 30 μl/min. The association kinetics was followed for 2 minutes and the dissociation kinetics was followed for 10 minutes. The association and dissociation curves were fit to a 1:1 Langmuir binding model using the Biacore evaluation software.

[2] = molecular target: human CD40-Fc protein (prepared in-house) (human); test: competitive ELISA: human CD40-Fc coated, blocked ligand biotin-labeled human CD40L-his, OD(450-630)
Description: (§3) The ability of the recombinant fusion proteins of the disclosure to block CD40-CD40L binding was measured in a competitive ELISA assay. Briefly, 100 μl/well human CD40-Fc proteins (prepared in-house with amino acid sequence of SEQ ID NO: 22) were coated on 96-well micro plates at 2 μg/mL in coating buffer (carbonate/bicarbonate buffer) and incubated overnight at 4° C. The next day, the plates were washed once with wash buffer (PBS+0.05% v/v Tween-20, PBST), and then blocked with 5% w/v non-fatty milk in PBST for 2 hours at 37° C. The plates were then washed 4 times using the wash buffer.
Serially diluted recombinant fusion proteins of the disclosure or controls (starting at 10 µg/mL with a 5-fold serial dilution) in PBST with 2.5% w/v non-fatty milk were added to the CD40-Fc bound plates, 100 μl per well, and incubated at 37° C. for 40 minutes. The plates were washed 4 times using wash buffer, and then added and incubated for 40 minutes at 37° C. with 100 μl/well 95 ng/mL biotin-labeled human CD40L-his protein (Cat #: 10239-H08E, Sino biological). The plates were washed again using wash buffer, added with 100 μl/well streptavidin conjugated HRP (1:10000 dilution in PBST buffer, Cat #: 016-030-084, Jackson ImmunoResearch) and incubated for 40 minutes at 37° C. The plates were washed again using wash buffer. […] The absorbance was read on a microplate reader using the dual wavelength mode with 450 nm for TMB and 630 nm as the reference wavelength, then the OD (450-630) values were plotted against the recombinant fusion protein or controls concentration. Data was analyzed using Graphpad Prism and IC₅₀ values were reported.

[3] = molecular target: T2, human CD47-his protein (Cat #: CD7-H5227, Acro biosystems) (human, UniProt Q08722 19-139); test: dual-binding ELISA: human CD40-Fc coated, binder titrated, detected with human CD47-his and anti-His-HRP, OD450
T2 construct: Bought protein
Description: (§4) The binding activity of the recombinant fusion proteins to human CD40 and CD47 was also tested by dual-binding ELISA assay. Briefly, 100 μl/well human CD40-Fc proteins (Cat #: CD0-H5253, ACRO Biosystems) were coated on 96-well plates at 0.2 μg/mL in PBS and incubated overnight at 2-8° C. The next day, the plates were washed 3 times using wash buffer (PBS+0.05% v/v Tween-20, PBST), and then blocked with block buffer (PBS+1% w/v BSA) for 3 hours at 37° C. The plates were then washed 3 times using the wash buffer.
(§5) Serially diluted recombinant fusion proteins of the disclosure or controls (starting at 100 nM with a 6-fold serial dilution) in block buffer were added to the CD40-Fc bound plates, 100 μL per well, and incubated at 37° C. for 1 hour. The plates were washed 3 times using wash buffer, and then added and incubated for 1 hour at 37° C. with 100 μl/well 3 μg/mL human CD47-his protein (Cat #: CD7-H5227, ACRO Biosystems). The plates were washed again using wash buffer, added with 100 μl/well Anti-His tag Antibody (HRP) (1:2000 dilution in block buffer, Cat #: 105327-MM02T-H, Sino Biological) and incubated for 1 hour at 37° C. The plates were washed again using wash buffer. […] The absorbance was read using a microplate reader set to 450 nm, then the OD (450) values were plotted against the recombinant fusion protein or controls concentration. Data was analyzed using Graphpad Prism and EC₅₀ values were reported.

[4] = molecular target: T3, full length human CD40 (uniprot #P25942-1) on 293T-CD40 cells (human, UniProt P25942 21-277); test: FACS on 293T-CD40 cells, detection with goat anti-human IgG (Fab)-PE, MFI
T3 construct: whole, on cells
Description: Following an incubation of 40 minutes at 4° C. in dark, cells were washed three times and resuspended in FACS buffer. Fluorescence was measured using a Becton Dickinson FACS Canto II-HTS equipment and plotted against the recombinant fusion protein or controls concentration. Data was analyzed using Graphpad Prism and EC₅₀ values were reported.

[5] = molecular target: T2, human CD47-his protein (Cat #: …); test: SPR (Biacore T200), sample on Protein A chip, antigen-his analyte, 1:1 fit
Source text: as §1, §2

[6] = molecular target: human CD40-Fc protein (Cat #: CD0-H5253, ACRO Biosystems) (human, UniProt P25942 21-193); test: dual-binding ELISA: human CD40-Fc coated, binder titrated, detected with human CD47-his and anti-His-HRP, OD450
Description: as §4, §5

[7] = molecular target: T4, biotin-labeled human CD47-Fc (Biosion in house made) (human, biotin-labeled (sites not given)); test: competitive ELISA: binder premixed with biotin-labeled human CD47-Fc, blocked partner coated human CD172a-Fc, OD(450-630)
T4 construct: also called Human CD47-Fc protein
Description: as §3, with “CD47-CD172a” for “CD40-CD40L”, “CD172a-Fc” for “CD40-Fc”, “24)” for “22)”, “using” for “using the”
Serially diluted recombinant fusion proteins of the disclosure or controls (starting at 100 nM with a 5-fold serial dilution) were mixed with 20 ng/ml biotin-labeled human CD47-Fc (Biosion in house made, SEQ ID NO: 23) in PBST with 2.5% w/v non-fatty milk. The mixtures were incubated at 37° C. for 40 minutes, and respectively added to the CD172a-Fc bound plates, 100 μl per well. The plates were incubated at 37° C. for 40 minutes, washed 4 times using wash buffer, added with 100 μl/well streptavidin conjugated HRP (1:10000 dilution in PBST buffer, Cat #: 016-030-084, Jackson ImmunoResearch), incubated for 40 minutes at 37° C., and washed again using wash buffer. […] The plates were read on a microplate reader using the dual wavelength mode with 450 nm for TMB and 630 nm as the reference wavelength, and the OD (450-630) values were plotted against the recombinant fusion protein or controls concentration. Data was analyzed using Graphpad Prism and IC₅₀ values were reported. Wild-type SIRPαV2D1-Fc (IgG2) (SEQ ID NO: 21, X1=V, X2=K, X3=S, X4=K, X5=F) was used as a positive control.

| Kd [1] | koff [1] | kon [1] | IC50 [2] | binding result [3] | EC50 [4] | Kd [5] | koff [5] | kon [5] | EC50 [6] | IC50 [7] | Binder |
| --- | --- | --- | --- | --- | --- | --- | --- | --- | --- | --- | --- |
| 1.05 nM | 0.00169 s⁻¹ | 1.62e+06 M⁻¹ s⁻¹ | 1.01 nM | no binding (tested: 100 nM) | 1.06 nM |  |  |  |  |  | HuCD40-C1H1-V2 (antibody, human IgG2, kappa, V domains shown, Humanized anti-CD40 IgG with human IgG2 heavy chain constant region; also called anti-CD40 antibody HuCD40-C1H1-V2) VH: EVQLVESGGGLVKPGGSLRLSCAASGFTFSNYGISWVRQAPGKGLEWVSSISSGGDNTYYPDNVKGRFTISRDNAKNSLYLQMNSLRAEDTAVYYCARAGEKAMDYWGQGTLVTVSS VL: EIVLTQSPATLSLSPGERATLSCRASQTINNNLHWYQQKPGQAPRLLIKYASQSISGIPARFSGSGSGTDFTLTISSLEPEDFAVYFCQQFSSWPLTFGGGTKVEIKR |
| 0.729 nM | 0.00184 s⁻¹ | 2.53e+06 M⁻¹ s⁻¹ | ~2.37 nM |  | 1.19 nM | 6.31 nM | 0.00686 s⁻¹ | 1.09e+06 M⁻¹ s⁻¹ | 0.689 nM | 76.8 nM | BSI038×S-002 (bispecific antibody, human IgG2, kappa, Wild-type SIRPαV2D1 linked to N-terminus of each heavy chain of HuCD40-C1H1-V2 (human IgG2)) heavy: not shown light: EIVLTQSPATLSLSPGERATLSCRASQTINNNLHWYQQKPGQAPRLLIKYASQSISGIPARFSGSGSGTDFTLTISSLEPEDFAVYFCQQFSSWPLTFGGGTKVEIKRTVAAPSVFIFPPSDEQLKSGTASVVCLLNNFYPREAKVQWKVDNALQSGNSQESVTEQDSKDSTYSLSSTLTLSKADYEKHKVYACEVTHQGLSSPVTKSFNRGEC |
